55 molecules from PMC12416549 (2024) can be followed below.

Numbering of substitutions follows the chain as printed. Names and notes keep the numbering of the source.

To fix the notation:
B1: L25I (designed binder)
chain: SMEEEVEKAAKEYEKKKKEAIEKHIEKLKAKDKEAAERFLKELEEAAKEYAKDEAKTMSEEEAKRRAKKYKEKVLLSELSEEEQKEIKEAEEKLVRTILKYVEEAAK
B2: A9G (designed binder)
chain: B1 chain with A9G, I25L
B3: S80M (designed binder)
chain: B1 chain with I25L, S80M
B4: E83W (designed binder)
chain: B1 chain with I25L, E83W
B5: E72N (designed binder)
chain: B1 chain with I25L, E72N
B6: L76Q (designed binder)
chain: B1 chain with I25L, L76Q
B7: E72W (designed binder)
chain: B1 chain with I25L, E72W
B8: K11F (designed binder)
chain: B1 chain with K11F, I25L
B9: Q84H (designed binder)
chain: B1 chain with I25L, Q84H
B10: R38C (designed binder)
chain: B1 chain with I25L, R38C
B11: E37H (designed binder)
chain: B1 chain with I25L, E37H
B12: K107Q (designed binder)
chain: B1 chain with I25L, K107Q
B13: E12S (designed binder)
chain: B1 chain with E12S, I25L
B14: E49P (designed binder)
chain: B1 chain with I25L, E49P
B15: I87V (designed binder)
chain: B1 chain with I25L, I87V
B16: L43H (designed binder)
chain: B1 chain with I25L, L43H
B17: L75P (designed binder)
chain: B1 chain with I25L, L75P
B18: E14Y (designed binder)
chain: B1 chain with E14Y, I25L
B19: E14L (designed binder)
chain: B1 chain with E14L, I25L
B20: E103L (designed binder)
chain: B1 chain with I25L, E103L
B21: M58N (designed binder)
chain: B1 chain with I25L, M58N
B22: A51H (designed binder)
chain: B1 chain with I25L, A51H
B23: A90N (designed binder)
chain: B1 chain with I25L, A90N
B24: K100D (designed binder)
chain: B1 chain with I25L, K100D
B25: K15N (designed binder)
chain: B1 chain with K15N, I25L
B26: T97M (designed binder)
chain: B1 chain with I25L, T97M
B27: L76F (designed binder)
chain: B1 chain with I25L, L76F
B28: A67L (designed binder)
chain: B1 chain with I25L, A67L
B29: T97R (designed binder)
chain: B1 chain with I25L, T97R
B30: E92R (designed binder)
chain: B1 chain with I25L, E92R
B31: R65C (designed binder)
chain: B1 chain with I25L, R65C
B32: E5M (designed binder)
chain: B1 chain with E5M, I25L
B33: K52I (designed binder)
chain: B1 chain with I25L, K52I
B34: Q84C (designed binder)
chain: B1 chain with I25L, Q84C
B35: R65D (designed binder)
chain: B1 chain with I25L, R65D
B36: E86L (designed binder)
chain: B1 chain with I25L, E86L
B37: A30V (designed binder)
chain: B1 chain with I25L, A30V
B38: V102R (designed binder)
chain: B1 chain with I25L, V102R
B39: E3G (designed binder)
chain: B1 chain with E3G, I25L
B40: S80L (designed binder)
chain: B1 chain with I25L, S80L
B41: A51V (designed binder)
chain: B1 chain with I25L, A51V
B42: K41L (designed binder)
chain: B1 chain with I25L, K41L
B43: E4Q (designed binder)
chain: B1 chain with E4Q, I25L
B44: E81M (designed binder)
chain: B1 chain with I25L, E81M
B45: E7P (designed binder)
chain: B1 chain with E7P, I25L
B46: E44S (designed binder)
chain: B1 chain with I25L, E44S
B47: E3V (designed binder)
chain: B1 chain with E3V, I25L
B48: I21G (designed binder)
chain: B1 chain with I21G, I25L
B49: T97F (designed binder)
chain: B1 chain with I25L, T97F
B50: E37L (designed binder)
chain: B1 chain with I25L, E37L
B51: K93E (designed binder)
chain: B1 chain with I25L, K93E
B52: R65M (designed binder)
chain: B1 chain with I25L, R65M
B53: E42S (designed binder)
chain: B1 chain with I25L, E42S
B54: K41T (designed binder)
chain: B1 chain with I25L, K41T
B55: K48H (designed binder)
chain: B1 chain with I25L, K48H

This experiment has as its target T1, TNFR1 (Homo sapiens, UniProt P19438).
T1 chain: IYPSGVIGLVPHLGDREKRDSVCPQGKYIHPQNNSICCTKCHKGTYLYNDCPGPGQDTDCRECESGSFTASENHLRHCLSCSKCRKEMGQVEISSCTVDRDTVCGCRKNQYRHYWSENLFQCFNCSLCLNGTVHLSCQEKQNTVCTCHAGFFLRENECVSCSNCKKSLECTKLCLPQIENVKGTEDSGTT
Kind of experiment: yeast display SC50.
On to B1, for which the “apparent Kd (screen)” value came to 0.956 nM.

For B2, the “apparent Kd (screen)” value amounted to 1.05 nM.

As for B3, the “apparent Kd (screen)” value came out at 1.16 nM.

For B4, the “apparent Kd (screen)” value was 2.25 nM.

Regarding B5, the “apparent Kd (screen)” value was 1.27 nM.

For B6, the “apparent Kd (screen)” value was determined as 1.86 nM.

For the molecule B7, the “apparent Kd (screen)” value turned out to be 0.446 nM.

Consider B8, for which the “apparent Kd (screen)” value came to 0.49 nM.

Take B9: the “apparent Kd (screen)” value was determined as 3.3 nM.

Turning to B10, the “apparent Kd (screen)” value is 2.25 nM.

Take B11: the “apparent Kd (screen)” value was determined as 0.446 nM.

For the molecule B12, the “apparent Kd (screen)” value is 1.16 nM.

For the molecule B13, the “apparent Kd (screen)” value was determined as 0.446 nM.

B14: the “apparent Kd (screen)” value was found to be 4.39 nM.

B15: the “apparent Kd (screen)” value was 3 nM.

Regarding B16, the “apparent Kd (screen)” value is 3.63 nM.

On to B17, for which the “apparent Kd (screen)” value was 3.99 nM.

B18: the “apparent Kd (screen)” value came out at 10.4 nM.

With B19, the “apparent Kd (screen)” value turned out to be 7.07 nM.

Turning to B20, the “apparent Kd (screen)” value came out at 3 nM.

Consider B21, for which the “apparent Kd (screen)” value stood at 13.8 nM.

As for B22, the “apparent Kd (screen)” value was determined as 0.49 nM.

Turning to B23, the “apparent Kd (screen)” value was found to be 0.446 nM.

Take B24: the “apparent Kd (screen)” value is 2.48 nM.

Consider B25, for which the “apparent Kd (screen)” value stood at 0.539 nM.

Consider B26, for which the “apparent Kd (screen)” value turned out to be 0.539 nM.

Turning to B27, the “apparent Kd (screen)” value stood at 0.539 nM.

With B28, the “apparent Kd (screen)” value was found to be 7.78 nM.

For B29, the “apparent Kd (screen)” value was found to be 0.49 nM.

B30: the “apparent Kd (screen)” value came out at 11.4 nM.

Regarding B31, the “apparent Kd (screen)” value was 6.43 nM.

On to B32, for which the “apparent Kd (screen)” value was 0.446 nM.

Consider B33, for which the “apparent Kd (screen)” value was 0.446 nM.

As for B34, the “apparent Kd (screen)” value came out at 4.83 nM.

Regarding B35, the “apparent Kd (screen)” value is 0.405 nM.

In the case of B36, the “apparent Kd (screen)” value is 1.4 nM.

Turning to B37, the “apparent Kd (screen)” value is 0.869 nM.

For the molecule B38, the “apparent Kd (screen)” value was 2.25 nM.

On to B39, for which the “apparent Kd (screen)” value came to 3 nM.

Regarding B40, the “apparent Kd (screen)” value stood at 0.539 nM.

For B41, the “apparent Kd (screen)” value turned out to be 9.41 nM.

As to B42, the “apparent Kd (screen)” value is 0.446 nM.

As to B43, the “apparent Kd (screen)” value turned out to be 0.446 nM.

Regarding B44, the “apparent Kd (screen)” value came out at 0.539 nM.

B45: the “apparent Kd (screen)” value amounted to 1.4 nM.

With B46, the “apparent Kd (screen)” value stood at 1.86 nM.

Turning to B47, the “apparent Kd (screen)” value was 1.69 nM.

Regarding B48, the “apparent Kd (screen)” value is 0.49 nM.

Regarding B49, the “apparent Kd (screen)” value worked out at 0.405 nM.

On to B50, for which the “apparent Kd (screen)” value is 0.869 nM.

Turning to B51, the “apparent Kd (screen)” value stood at 0.956 nM.

For the molecule B52, the “apparent Kd (screen)” value worked out at 0.956 nM.

Regarding B53, the “apparent Kd (screen)” value was found to be 7.78 nM.

As for B54, the “apparent Kd (screen)” value came out at 0.956 nM.

In the case of B55, the “apparent Kd (screen)” value is 0.718 nM.
